{"source": "paper PMC9898758", "about": "“Analysis of a degron-containing reporter protein GFP-CL1 reveals a role for SUMO1 in cytosolic protein quality control” (The Journal of Biological Chemistry, 2022)", "molecular_target": "T1, MBP-Slx5 (UniProt P32828 1-619)", "T1 construct": "Plasmid was a gift from Dr Oliver Kerscher; also called MBP-tagged SLX5; source: E. coli Rosetta, purified (amylose resin)", "T1 sequence (looked up)": "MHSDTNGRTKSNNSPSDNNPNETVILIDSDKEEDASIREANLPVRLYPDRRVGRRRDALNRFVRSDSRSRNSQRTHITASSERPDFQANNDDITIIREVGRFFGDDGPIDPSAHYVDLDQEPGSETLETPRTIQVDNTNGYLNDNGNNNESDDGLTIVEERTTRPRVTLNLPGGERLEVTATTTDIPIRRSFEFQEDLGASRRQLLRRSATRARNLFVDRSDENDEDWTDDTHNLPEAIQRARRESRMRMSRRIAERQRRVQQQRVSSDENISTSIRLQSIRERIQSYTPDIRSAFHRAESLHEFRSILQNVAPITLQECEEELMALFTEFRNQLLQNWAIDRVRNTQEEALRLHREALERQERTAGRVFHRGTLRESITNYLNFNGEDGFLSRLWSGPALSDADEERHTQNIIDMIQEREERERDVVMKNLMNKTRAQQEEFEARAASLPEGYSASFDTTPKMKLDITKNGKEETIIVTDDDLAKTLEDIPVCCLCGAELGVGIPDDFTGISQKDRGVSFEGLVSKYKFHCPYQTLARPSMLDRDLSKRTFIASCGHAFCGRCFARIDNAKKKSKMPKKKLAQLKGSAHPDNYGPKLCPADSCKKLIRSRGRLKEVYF", "experiment": "pull-down; MBP-Slx5 or MBP alone immobilised on amylose beads, incubated with purified GST, GST-Smt3 or GST-Smt3-K38/40A; washes, SDS-PAGE, immunoblot with anti-MBP and anti-GST", "conditions": "both partners purified"}
{"binder": "GST-tagged Smt3-K38/40A mutant (natural protein, S. cerevisiae, Smt3 of S. cerevisiae with K38A and K40A; SMT3^K38/40A cloned into pGEX-6p-1; also called GST-SMT3^K38/40A; GST-Smt3-K30/40A; source: E. coli Rosetta, purified (Glutathione Sepharose 4B)) EVKPEVKPETHINLKVSDGSSEIFFAIAKTTPLRRLMEAFAKRQGKEMDSLRFLYDGIRIQADQTPEDLDMEDNDIIEAHREQIGG", "values": [{"measurement": "fold reduction in binding against WT Smt3", "value": "> 5", "unit": "fold"}]}
